The results in this text go back to PMC7280531 (2020).

B1: xStAx (peptide)
chain: Ac-RRWPQLILDLHVRRVWR
modifications: staple (positions not given here); not fully specified (C-terminus); also: further groups not given here
B2: β-catenin (natural protein)
chain: MATQADLMELDMAMEPDRKAAVSHWQQQSYLDSGIHSGATTTAPSLSGKGNPEEEDVDTSQVLYEWEQGFSQSFTQEQVADIDGQYAMTRAQRVRAAMFPETLDEGMQIPSTQFDAAHPTNVQRLAEPSQMLKHAVVNLINYQDDAELATRAIPELTKLLNDEDQVVVNKAAVMVHQLSKKEASRHAIMRSPQMVSAIVRTMQNTNDVETARCTAGTLHNLSHHREGLLAIFKSGGIPALVKMLGSPVDSVLFYAITTLHNLLLHQEGAKMAVRLAGGLQKMVALLNKTNVKFLAITTDCLQILAYGNQESKLIILASGGPQALVNIMRTYTYEKLLWTTSRVLKVLSVCSSNKPAIVEAGGMQALGLHLTDPSQRLVQNCLWTLRNLSDAATKQEGMEGLLGTLVQLLGSDDINVVTCAAGILSNLTCNNYKNKMMVCQVGGIEALVRTVLRAGDREDITEPAICALRHLTSRHQEAEMAQNAVRLHYGLPVVVKLLHPPSHWPLIKATVGLIRNLALCPANHAPLREQGAIPRLVQLLVRAHQDTQRRTSMGGTQQQFVEGVRMEEIVEGCTGALHILARDVHNRIVIRGLNTIPLFVQLLYSPIENIQRVAAGVLCELAQDKEAAEAIEAEGATAPLTELLHSRNEGVATYAAAVLFRMSEDKPQDYKKRLSVELTSSLFRTEPMAWNETADLGLDIGAQGEPLGYRQDDPSYRSFHSGGYGQDALGMDPMMEHEMGGHHPGADYPVDGLPDLGHAQDLMDGLPPGDSNQLAWFDTDL
B3: xStAx-VHLL (peptide)
chain: RRWPQLILDLHVRRVWR[Ahx]ALAPYIP
modifications: staple (positions not given here); not fully specified (C-terminus); also: further groups not given here

Where no end group is shown, it is not given here. [ ]: non-standard residue; d: D form. Ahx = NCCCCCC(=O)O

Common to all, as to test: ITC
On the technique in general: In ITC the heat of successive injections is recorded.

Assay [1] has as its target B2.
The target in assay [2] is B2.
In a further assay the target is SAHPA1 (stapled: side chains of olefin residues (S5, R8) cross-linked by ring-closing metathesis, positions in Figure 1a; N-terminus treated with acetic anhydride (typical protocol)).
In the next assay the target is SAHPA1-VHLL (stapled: side chains of olefin residues (S5, R8) cross-linked by ring-closing metathesis, positions in Figure 1a; 6-aminocaproic acid (Ahx) linker between the stapled peptide and the VHL ligand).

What is called Kd is the free concentration of one partner at which half of the binding sites on the other are occupied at equilibrium, for simple one-to-one binding. The low end stands for a tighter complex, the high end for a looser complex.

In the case of B1, the Kd in the assay with β-catenin [1] came out at 37 µM. Moreover, in the assay with β-catenin [2], the Ka amounted to 27000 M⁻¹.
In the assay with SAHPA1, B2 displayed a Ka of 26400 M⁻¹ and a Kd of 38 µM. For the same molecule, in the assay with SAHPA1-VHLL, the Ka came out at 18100 M⁻¹ and the Kd amounted to 55 µM.
Consider B3, for which the Kd in the assay with β-catenin [1] is 12 µM. This counts as double-digit micromolar.
